Here are results for one molecule from patent US7264801.

Test [1] deals with EG-VEGF receptor (high affinity binding sites) on bovine adrenal cortical capillary endothelial cells (ACE) (bovine). Briefly: displacement of 125I-EG-VEGF by unlabeled tagged EG-VEGF on ACE cells. A general note: In a radioligand displacement assay an active substance lowers the binding of a labelled ligand.
For test [2] the target is unchanged. Description: 125I-EG-VEGF competitive binding on ACE cells, Scatchard analysis.
Test [3] concerns the target EG-VEGF binding component on human umbilical vein endothelial cells (HUVEC) (human). Description: displacement of 125I-EG-VEGF by unlabeled tagged EG-VEGF on HUVEC and other non-responsive cells.

For orientation: Kd means the free concentration of one partner at which half of the binding sites on the other are occupied at equilibrium, for simple one-to-one binding. High values mean weaker binding, low ones tighter binding.

B1: EG-VEGF-his (human EG-VEGF with C-terminal … tag, baculovirus-produced) (ligand)
chain: AVITGACERDVQCGAGTCCAISLWLRGLRMCTPLGREGEECHPGSHKVPFFRKRKHHTCPCLPNLLCSRFPDGRYRCSMDLKNINFGHHHHHHHH
modifications: 125I-iodinated when used as tracer in the cell binding assays (Iodobead or lactoperoxidase method); the unlabeled form was the competitor and the ELISA antigen
The molecule B1 displayed an ED50 in test [1] of 10 nM. The Kd in test [2] was in the range of 0.9 to 1 nM. The same molecule registered a competitor concentration that displaces the binding in test [3] of more than 270 nM.
